Source: patent US11732029B2, “Methods and compositions for the treatment of wounds” (The University of Chicago, priority 2017, dated 2023)

T1: VEGF-A165 (Homo sapiens, UniProt P15692)
T1 construct: All growth factors (GFs) and chemokines were purchased in their mature forms; purchased PeproTech; host or cells: Escherichia coli
T1 sequence (P15692 27-191 isoform P15692-4 limits assumed): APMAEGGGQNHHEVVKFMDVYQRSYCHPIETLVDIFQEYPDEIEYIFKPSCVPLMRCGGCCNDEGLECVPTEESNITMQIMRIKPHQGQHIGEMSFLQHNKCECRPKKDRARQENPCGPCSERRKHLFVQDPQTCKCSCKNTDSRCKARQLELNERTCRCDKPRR

T2: PlGF-1 (Homo sapiens, UniProt P49763)
T2 sequence (P49763 19-149 isoform P49763-2 limits assumed): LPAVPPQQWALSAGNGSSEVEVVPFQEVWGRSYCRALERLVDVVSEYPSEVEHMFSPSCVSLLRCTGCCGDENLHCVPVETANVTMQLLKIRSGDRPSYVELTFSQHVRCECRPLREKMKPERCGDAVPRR

T3: PlGF-2 (Homo sapiens, UniProt P49763)
T3 sequence (P49763 19-170 isoform P49763-3 limits assumed): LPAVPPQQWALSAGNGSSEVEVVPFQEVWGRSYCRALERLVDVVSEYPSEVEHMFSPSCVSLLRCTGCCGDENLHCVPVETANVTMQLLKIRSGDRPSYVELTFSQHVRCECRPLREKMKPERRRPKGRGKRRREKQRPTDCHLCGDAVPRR

T4: VEGF-A121 (Homo sapiens, UniProt P15692)
T4 sequence (P15692 27-147 isoform P15692-9 limits assumed): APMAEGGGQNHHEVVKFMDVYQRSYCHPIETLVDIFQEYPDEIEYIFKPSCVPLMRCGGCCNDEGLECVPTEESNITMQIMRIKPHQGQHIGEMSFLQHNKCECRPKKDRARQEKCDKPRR

B1: α4826-1816: laminin alpha 4 LG domain recombinant protein (R&D systems) (protein)
chain: QVSMMFDGQSAVEVHSRTSMDDLKAFTSLSLYMKPPVKRPELTETADQFILYLGSKNAKKEYMGLAIKNDNLVYVYNLGTKDVEIPLDSKPVSSWPAYFSIVKIERVGKHGKVFLTVPSLSSTAEEKFIKKGEFSGDDSLLDLDPEDTVFYVGGVPSNFKLPTSLNLPGFVGCLELATLNNDVISLYNFKHIYNMDPSTSVPCARDKLAFTQSRAASYFFDGSGYAVVRDITRRGKFGQVTRFDIEVRTPADNGLILLMVNGSMFFRLEMRNGYLHVFYDFGFSGGPVHLEDTLKKAQINDAKYHEISIIYHNDKKMILVVDRRHVKSMDNEKMKIPFTDIYIGGAPPEILQSRALRAHLPLDINFRGCMKGFQFQKKDFNLLEQTETLGVGYGCPEDSLISRRAYFNGQSFIASIQKISFFDGFEGGFNFRTLQPNGLLFYYASGSDVFSISLDNGTVIMDVKGIKVQSVDKQYNDGLSHFVISSVSPTRYELIVDKSRVGSKNPTKGKIEQTQASEKKFYFGGSPISAQYANFTGCISNAYFTRVDRDVEVEDFQRYTEKVHTSLYECPIESSPLFLLHKKGKNLSKPKASQNKKGGKSKDAPSWDPVALKLPERNTPRNSHCHLSNSPRAIEHAYQYGGTANSRQEFEHLKGDFGAKSQFSIRLRTRSSHGMIFYVSDQEENDFMTLFLAHGRLVYMFNVGHKKLKIRSQEKYNDGLWHDVIFIRERSSGRLVIDGLRVLEESLPPTEATWKIKGPIYLGGVAPGKAVKNVQINSIYSFSGCLSNLQLNGASITSASQTFSVTPCFEGPMETGTYFSTEGGYVVLDESFNIGLKFEIAFEVRPRSSSGTLVHGHSVNGEYLNVHMKNGQVIVKVNNGIRDFSTSVTPKQSLCDGRWHRITVIRDSNVVQLDVDSEVNHVVGPLNPKPIDHREPVFVGGVPESLLTPRLAPSKPFTGCIRHFVIDGHPVSFSKAALVSGAVSINSCPAA
B2: α53026-3482: laminin alpha 5 LG domain recombinant protein (LD BioPharma) (protein)
chain: AIQVFLLGGSRKRVLVRVERATVYSVEQDNDLELADAYYLGGVPPDQLPPSLRRLFPTGGSVRGCVKGIKALGKYVDLKRLNTTGVSAGCTADLLVGRAMTFHGHGFLRLALSNVAPLTGNVYSGFGFHSAQDSALLYYRASPDGLCQVSLQQGRVSLQLLRTEVKTQAGFADGAPHYVAFYSNATGVWLYVDDQLQQMKPHRGPPPELQPQPEGPPRLLLGGLPESGTIYNFSGCISNVFVQRLLGPQRVFDLQQNLGSVNVSTGCAPALQAQTPGLGPRGLQATARKASRRSRQPARHPACMLPPHLRTTRDSYQFGGSLSSHLEFVGILARHRNWPSLSMHVLPRSSRGLLLFTARLRPGSPSLALFLSNGHFVAQMEGLGTRLRAQSRQRSRPGRWHKVSVRWEKNRILLVTDGARAWSQEGPHRQHQGAEHPQPHTLFVGGLPASSHSSKLP
B3: α32928-3150: recombinant human laminin alpha 3 LG domain Ser2928-Cys3150 (linker domain and LG4 domain), 6 His (protein)
chain: HHHHHHSLNKPPFLMLLKGSTRFNKTKTFRINQLLQDTPVASPRSVKVWQDACSPLPKTQANHGALQFGDIPTSHLLFKLPQELLKPRSQFAVDMQTTSSRGLVFHTGTKNSFMALYLSKGRLVFALGTDGKKLRIKSKEKCNDGKWHTVVFGHDGEKGRLVVDGLRAREGSLPGNSTISIRAPVYLGSPPSGKPKSLPTNSFVGCLKNFQLDSKPLYTPSSSFGVSSC

Legend:
PDGF-BB [1] = molecular target: T5, PDGF-BB (Homo sapiens, UniProt P01127); test: GF binding to recombinant laminin LG domain protein and synthesized laminin HBD peptides (ELISA); conditions: plate coated with LG domain protein or peptide, 1 μg/mL GF, vs BSA-coated wells
T5 construct: All growth factors (GFs) and chemokines were purchased in their mature forms; purchased PeproTech; host or cells: Escherichia coli
T5 sequence (P01127 82-190 limits assumed): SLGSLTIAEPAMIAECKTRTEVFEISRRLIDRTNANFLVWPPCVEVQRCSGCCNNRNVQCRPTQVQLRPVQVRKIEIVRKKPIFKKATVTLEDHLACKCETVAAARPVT
Experimental: (§1) ELISA tests were performed as described above. In brief, ELISA plates were coated with 1 μg/mL of laminin alpha 3 LG domain recombinant protein, laminin alpha 4 LG domain recombinant protein (R&D systems), laminin alpha 5 LG domain recombinant protein (LD BioPharma), or laminin peptide (sequences are described in Table 1, chemically synthesized by Genscript) in PBS for 2 hrs at 37° C. 1 μg/mL of BSA served as non-binding protein control. After blocking with 2% BSA PBS-0.05% Tween 20 (PBS-T) solution, 1 μg/mL of the recombinant human proteins (VEGF-A121, VEGF-A165, PlGF-1, PlGF-2, PDGF-BB or FGF-2) or 10 μg/mL of biotinylated heparin (Sigma-Aldrich) were added. Bound GF was detected with biotinylated antibodies for human VEGF, PlGF, PDGF-BB, or FGF-2 (R&D Systems). The antibodies were detected by streptavidin-HRP (R&D Systems).

VEGF-A165 [2] = molecular target: T1, VEGF-A165; test: as above; conditions: plate coated with LG domain protein or peptide, 1 μg/mL GF, vs BSA-coated wells
Experimental: as §1

FGF-2 = FGF-2 (Homo sapiens, UniProt P09038); test: as above; parameters: All growth factors (GFs) and chemokines were purchased in their mature forms; purchased PeproTech; host or cells: Escherichia coli; conditions: plate coated with LG domain protein or peptide, 1 μg/mL GF, vs BSA-coated wells
Sequence of FGF-2 (P09038 143-288): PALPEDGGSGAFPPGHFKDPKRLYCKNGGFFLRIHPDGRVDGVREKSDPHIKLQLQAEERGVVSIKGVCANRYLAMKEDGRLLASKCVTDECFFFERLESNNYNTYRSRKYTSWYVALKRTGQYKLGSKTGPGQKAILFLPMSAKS
Experimental: as §1

PlGF-1 = molecular target: T2, PlGF-1; test: as above; parameters: All growth factors (GFs) and chemokines were purchased in their mature forms; purchased PeproTech; host or cells: Escherichia coli; conditions: plate coated with LG domain protein or peptide, 1 μg/mL GF, vs BSA-coated wells
Experimental: as §1

PlGF-2 = molecular target: T3, PlGF-2; test: as above; parameters: All growth factors (GFs) and chemokines were purchased in their mature forms; purchased PeproTech; host or cells: Escherichia coli; conditions: plate coated with LG domain protein or peptide, 1 μg/mL GF, vs BSA-coated wells
Experimental: as §1

VEGF-A121 = molecular target: T4, VEGF-A121; test: as above; parameters: All growth factors (GFs) and chemokines were purchased in their mature forms; purchased PeproTech; host or cells: Escherichia coli; conditions: plate coated with LG domain protein or peptide, 1 μg/mL GF, vs BSA-coated wells
Experimental: as §1

PDGF-BB [3] = molecular target: T5, PDGF-BB; test: Surface plasmon resonance, laminin against GF; conditions: SPR; laminin protein immobilized on chip, GF flowed; Langmuir binding kinetics
Experimental: (§2) SPR analysis was performed as described previously^2. In brief, measurements were made with a Biacore 3000 SPR system (GE Healthcare). Laminin-521 or laminin α32928-3150 was immobilized via amine coupling on a C1 chip (GE Healthcare) for ˜2000 or ˜1000 resonance units (RU), respectively, according to the manufacturer's instructions. VEGF-A165, PDGF-BB, or PlGF-2 was flowed at increasing concentrations in the running buffer at 20 μL/min. The sensor chip was regenerated with 50 mM NaOH for every cycle. Specific bindings of GFs to laminin were calculated by comparison to a non-functionalized channel used as a reference. Experimental results were fitted with Langmuir binding kinetics using BIAevaluation software (GE Healthcare).

VEGF-A165 [4] = molecular target: T1, VEGF-A165; test: Surface plasmon resonance, laminin against GF; conditions: SPR; laminin protein immobilized on chip, GF flowed; Langmuir binding kinetics
Experimental: as §2

Molecule	binding to PDGF-BB (PDGF-BB [1])	binding to VEGF-A165 (VEGF-A165 [2])	binding to FGF-2 (FGF-2)	binding to PlGF-1 (PlGF-1)	binding to PlGF-2 (PlGF-2)	binding to VEGF-A121 (VEGF-A121)	Kd (PDGF-BB [3]) [nM]	Kd (VEGF-A165 [4]) [nM]
B1	bound	bound	bound	did not show any binding	bound	did not show any binding		
B2	bound	bound	bound	did not show any binding	bound	did not show any binding		
B3	bound	bound	bound	did not show any binding	bound	did not show any binding	10.2	1.2
